Measurements as given in patent publication US9744212B2, “Galectin-3C combination therapy for human cancer” (Texas Tech University System, priority 2011, dated 2017).

Columns and labels:
HUVEC [1] = experiment: HUVEC chemotaxis (migration) toward U266 conditioned media; assay type: cell-based, human; conditions: U266 treated 48 h with 10 μg/mL Gal-3C, 5 nM Bor or both; 20% conditioned medium; ANOVA, Tukey's post-test
Method: Chemotaxis of HUVEC Cells. Chemotaxis (migration) was analyzed with HUVEC cells as a measure of angiogenic potential as reported (86), using 50×10^3 cells/well and 24-well transwell inserts with 8-μm pores. […] As a negative control, EGM-2 medium alone was used. After incubation for 16 h, cells were removed from the upper chamber, and the migrated cells were visualized on the lower side of the filter after fixing and staining with 30% methanol, 10% acetic and 0.1% Coomassie Brilliant Blue. Next, the filters were extensively washed with water, and then air-dried and photographed using an inverted X71 microscope (Olympus, Center Valley, Pa., USA). The average number of cells in 4 random fields per filter was calculated. The studies were run in triplicate and the results are expressed as a migration index (MI), as follows: MI=number of cells migrated in the presence of conditioned medium/number of cells migrated in the presence of EGM-2 alone. […] All assays were run in triplicate.
FIG. 3A is a graph of the results from the vascular endothelial cell migration assay. FIG. 3B is an image of the filters. […] Mean migration indexes (left; ±95% C.I.) expressed as the number of cells migrated in the presence of the indicated stimulus divided by the number of cells migrated in the presence of EBM-2 alone. […]

U266 MM cells = experiment: Chemotaxis of U266 cells toward SDF-1α in transwell chambers; assay type: cell-based, human; conditions: Gal-3C at 2.0 μg/ml; SDF-1α 100 ng/ml; 4 hours
Method: Chemotaxis of U266 Cells. U266 cells (400×10^3/well) were plated in 100-μl cell culture media with and without Gal-3C (0, 0.4, 2.0, 10, and 20 μg/ml) in the top chambers of 24-well transwell inserts with 8-μm pores. Cell culture media (600 μ ? ) containing the B-cell chemoattractant stromal cell-derived factor (SDF)-1 ? (100 ng/ml; R&D Systems, Minneapolis, Minn., USA) was added to the bottom chamber. After 4 hours, the number of U266 cells in the bottom chamber was counted with a FACScan flow cytometer (flux rate on high, a 2 min acquisition gate, and 200 μs resolution).
FIG. 2 is a graph of Gal-3C inhibits the chemotaxis of U266 MM cells Gal-3C (0.4, 2, 10, or 20 μg/ml) in bicameral chambers in response to stromal cell-derived factor (SDF)-1α (100 ng/ml). Error bars are ±S.D. and sextuplicate data points are represented (ANOVA with Turkey test P<0.001 for all comparisons to controls). […] Gal-3C at 2.0 μg/m1 inhibited more than 60% of the U266 cell chemotaxis stimulated by the chemokine, SDF-1α. The SDF-1α and its receptor, CXCR4, are regulators of the migration and homing of MM cells to the bone marrow, and possibly may also control egression of MM cells out of the bone marrow (76).

human breast cancer = conditions: mouse model of human breast cancer, reference (60); cited from earlier work
HUVEC [2] = experiment: Vascular endothelial cell viability assay; assay type: cell-based, human; conditions: 48 h
Method: FIGS. 4A and 4B are graphs of the data from the vascular endothelial cell viability assay. […] The graphs show mean values and error bars represent 95% C.I. **=ANOVA Tukey's post test p<O.Ol. n.s.=not significant. […] Viability was measured as described for the U266 cells. […] Results obtained from the HUVEC viability studies that were run in triplicate are depicted in FIGS. 4A-B, and are presented as a percentage of control (untreated) cells.
EXAMPLE 3 illustrates Gal-3C inhibits proliferation of MM cells. Cell Proliferation (Viability) Assays. Cell proliferation was assessed with a ViaLight Plus Cell Proliferation and Cytotoxicity BioAssay Kit (Lonza, Walkersville, Md., USA) according to the directions of the manufacturer. In brief, myeloma cells were seeded (8,000 per well) in 50 μL of RPMI-1640 with 10% heat-inactivated FBS (growth medium) in 96-well plates. HUVEC cells were seeded (10,000/well) in 50 μl EGM-2 medium in 96-well plates. Gal-3C (2× concentration) in 50 μL of growth medium was added to triplicate wells and the plate kept at the CO2 incubator at 37° C. for 48 hour. For the ViaLight assay, 50 μL of lysis buffer was added to each well, the plate was incubated for 10 minutes, after which 50 μL of cell lysate from each well was transferred to a solid white Lumitrac-200 plate and 50 μL of reconstituted AMR Plus was added. Luminescence was measured with a 1-s integrated setting in a Berthold luminometer after 2 minutes. With Alamar Blue, 10 μL of reagent was added per well and the plate kept in the CO2 incubator for 4 hours. Fluorescence intensity was measured at 590-nm on a Polarstar Galaxy (BMG Labtech, Cary, N.C.) microplate reader. The blank (growth media with 10 μl Alamar Blue) was subtracted from the raw fluorescence to obtain adjusted fluorescence readings. Triplicate data points were analyzed and the data shown are representative of 3 or more studies.

HUVEC [3] = experiment: HUVEC tubule formation assay on Matrigel with U266 conditioned media; assay type: cell-based, human; conditions: 20% V/V conditioned medium of U266 treated 48 h with 10 μg/mL Gal-3C, 5 nM Bor or both; 16-hour incubation
Method: HUVEC Tubule Formation Assay. A tubule formation assay was performed in vitro as described (86) to measure angiogenesis. Briefly, growth factor-reduced Matrigel (Becton Dickinson) was allowed to polymerize in the presence of 30 ng/mL recombinant basic fibroblastic growth factor (bFGF; R&D Systems) for 1 hour at 37° C.
FIG. 5 is an image of the results from the In vitro tubule formation assay having 6 regions. Serum-starved HUVEC were allowed to form tubules on a […]™ surface in the presence of VEGF (positive control), EMB-2 medium alone (negative control), or EBM-2 supplemented with 20% V/V U266 conditioned media (c.m.). […] To evaluate the effect of different treatments on the ability of U266 cells to induce angiogenesis, a […]™-based tubule formation assay was performed in the presence of U266 conditioned media as described for the chemotaxis assay. Serum-starved (5×103) HUVEC were seeded on the […]™ surface in 200-μL EBM-2 medium supplemented with 20% V/V conditioned medium. Pictures were taken after 16-hour incubation in 5% CO2 at 37° C. The assay was run in triplicate and representative images are depicted in FIG. 5. As a positive control, EBM-2 medium supplemented with 20 ng/mL VEGF was used.

B1: Gal-3C: N-terminally truncated human galectin-3 consisting of 143 carboxy-terminal amino acid residues, SEQ ID NO: 1 (protein)
chain: GAPAGPLIVPYNLPLPGGVVPRMLITILGTVKPNANRIALDFQRGNDVAFHFNPRFNENNRRVIVCNTKLDNNWGREERQSVFPFESGKPFKIQVLVEPDHFKVAVNDAHLLQYNHRVKKLNEISKLGISGDIDITSASYTMI
HUVEC [1]
  migration index compared with controls: no significant difference
U266 MM cells
  inhibition of U266 cell chemotaxis stimulated by SDF-1α: more than 60%
Human breast cancer
  adverse side effects: no evidence of adverse side effects
  tumor growth and metastasis: inhibited tumor growth and metastasis
HUVEC [2]; at the concentration used in the chemotaxis and angiogenesis assays (Gal-3C 2 μg/ml, Bor 1 nM)
  effect on HUVEC viability: did not display significant effects
HUVEC [2]; at the highest concentrations
  effect on HUVEC viability: mild effect
HUVEC [3]
  potential of U266 cells for induction of angiogenesis (tubule formation): almost completely impaired
